# Substrate: O=C(O)CNC(=O)CNC(=O)CNC(=O)c1ccccc1
# Test: ACE assay: hydrolysis of ^3H-HipGlyGly by human serum, Lineweaver-Burke Km
# Assay type: biochemical
# Settings: other: human serum, pH 8.0, 37° C., 60 min
# Protocol: The following sample illustrates the preferred assay method, the sensitivity of the assay and the Km for ^3 H-HipGlyGly. The reaction buffer contains 0.05 M Hepes, 0.1 M sodium chloride and 0.6 M sodium sulphate at pH 8.0. (Pepes is N-2-Hydroxyethyl piperazine N'-2-ethane sulfonic acid.) The substrate, ^3 H-HipGlyGly was dissolved in reaction buffer at a concentration of 16 mM and a specific radioactivity of about 0.15 millicuries/millimole. Serum was prepared from fresh whole blood by standard techniques. […] Hemolyzed samples were not used in the assay. Serum samples could be stored at least for one week at 2° C. to 8° C. or for at least 8 weeks frozen, prior to assaying. For the assay, 50 μl. of serum was diluted with 200 μl. of reaction buffer. […]
# A control determination of background radioactivity was made using 50 μl. of reaction buffer instead of diluted serum in the reaction mixture. […] Total radioactivity was determined by counting an amount of substrate equal to that used in the reaction mixture directly in the scintillation counter.
# Reaction velocity, in terms of nanomoles of product formed per minute per ml of serum was calculated according to the following formula: [formula] In this formula, "nmoles" means nanomoles, "min" means minutes, "ml" means milliliters and "cpm" means radioactivity counts per minute. […]
protein,measurement,value
"angiotensin converting enzyme (ACE) (Homo sapiens) (protein, Serum was prepared from fresh whole blood by standard techniques; from tissue; host or cells: serum (unfractionated)) LDPGLQPGNFSADEAGAQLFAQSYNSSAEQVLFQSVAASWAHDTNITAENARRQEEAALLSQEFAEAWGQKAKELYEPIWQNFTDPQLRRIIGAVRTLGSANLPLAKRQQYNALLSNMSRIYSTAKVCLPNKTATCWSLDPDLTNILASSRSYAMLLFAWEGWHNAAGIPLKPLYEDFTALSNEAYKQDGFTDTGAYWRSWYNSPTFEDDLEHLYQQLEPLYLNLHAFVRRALHRRYGDRYINLRGPIPAHLLGDMWAQSWENIYDMVVPFPDKPNLDVTSTMLQQGWNATHMFRVAEEFFTSLELSPMPPEFWEGSMLEKPADGREVVCHASAWDFYNRKDFRIKQCTRVTMDQLSTVHHEMGHIQYYLQYKDLPVSLRRGANPGFHEAIGDVLALSVSTPEHLHKIGLLDRVTNDTESDINYLLKMALEKIAFLPFGYLVDQWRWGVFSGRTPPSRYNFDWWYLRTKYQGICPPVTRNETHFDAGAKFHVPNVTPYIRYFVSFVLQFQFHEALCKEAGYEGPLHQCDIYRSTKAGAKLRKVLQAGSSRPWQEVLKDMVGLDALDAQPLLKYFQPVTQWLQEQNQQNGEVLGWPEYQWHPPLPDNYPEGIDLVTDEAEASKFVEEYDRTSQVVWNEYAEANWNYNTNITTETSKILLQKNMQIANHTLKYGTQARKFDVNQLQNTTIKRIIKKVQDLERAALPAQELEEYNKILLDMETTYSVATVCHPNGSCLQLEPDLTNVMATSRKYEDLLWAWEGWRDKAGRAILQFYPKYVELINQAARLNGYVDAGDSWRSMYETPSLEQDLERLFQELQPLYLNLHAYVRRALHRHYGAQHINLEGPIPAHLLGNMWAQTWSNIYDLVVPFPSAPSMDTTEAMLKQGWTPRRMFKEADDFFTSLGLLPVPPEFWNKSMLEKPTDGREVVCHASAWDFYNGKDFRIKQCTTVNLEDLVVAHHEMGHIQYFMQYKDLPVALREGANPGFHEAIGDVLALSVSTPKHLHSLNLLSSEGGSDEHDINFLMKMALDKIAFIPFSYLVDQWRWRVFDGSITKENYNQEWWSLRLKYQGLCPPVPRTQGDFDPGAKFHIPSSVPYIRYFVSFIIQFQFHEALCQAAGHTGPLHKCDIYQSKEAGQRLATAMKLGFSRPWPEAMQLITGQPNMSASAMLSYFKPLLDWLRTENELHGEKLGWPQYNWTPNSAR",Km,6.25 mM

# Reference: US4251628A, “Substrates for angiotensin converting enzyme” (priority 1978, dated 1981)
